Assay results as given in the FLAb antibody collection (doi:10.7554/elife.23156).

B1: scFv; the commonest letter at each place (parent)
chain 1: EVKLDETGGGLVQPGRPMKLSCVASGFTFSDYWMNWVRQSPEKGLEWVAQIRNKPYNYETYYSDSVKGRFTISRDDSKSSVYLQMNNLRVEDMGIYYCTGSYYGMDYWGQGTSVTVS
chain 2: DVVMTQTPLSLPVSLGDQASISCRSSQSLVHSNGNTYLRWYLQKPGQSPKVLIYKVSNRFSGVPDRFSGSGSGTDFTLKISRVEAEDLGVYFCSQSTHVPWTFGGGTKLEIK

Columns and labels:
fluorescein = variants of: B1; test: Kd (Tite-Seq); conditions: with fluorescein; format: scFv 4-4-20, heavy + light
[1] = variants of: B1; test: yeast surface expression (ratio to wild type); higher = more expressed; conditions: format: scFv 4-4-20, heavy + light

Variant: chain 1 Y103M M105N
- Kd (fluorescein): 1.14 µM
- yeast surface expression [1]: 1.52

Variant: chain 1 T28N N35V
- Kd (fluorescein): ≥ 10 µM
- yeast surface expression [1]: 0.666

Variant: chain 1 S101P Y107F W108F
- Kd (fluorescein): ≥ 10 µM
- yeast surface expression [1]: 0.239

Variant: chain 1 W108C
- Kd (fluorescein): 0.000646 µM
- yeast surface expression [1]: 0.717

Variant: chain 1 W108N
- Kd (fluorescein): 0.031 µM
- yeast surface expression [1]: 0.468

Variant: chain 1 W33N N35T
- Kd (fluorescein): ≥ 10 µM
- yeast surface expression [1]: 0.979

Variant: chain 1 W33T
- Kd (fluorescein): ≥ 10 µM
- yeast surface expression [1]: 1.02

Variant: chain 1 W33R
- Kd (fluorescein): ≥ 10 µM
- yeast surface expression [1]: 0.877

Variant: chain 1 W33E
- Kd (fluorescein): ≥ 10 µM
- yeast surface expression [1]: 1.05

Variant: chain 1 D106K W108G
- Kd (fluorescein): ≥ 10 µM
- yeast surface expression [1]: 0.276

Variant: chain 1 M34I W36Q
- Kd (fluorescein): ≥ 10 µM
- yeast surface expression [1]: 0.283

Variant: chain 1 Y102G G104H
- Kd (fluorescein): ≥ 10 µM
- yeast surface expression [1]: 1.06

Variant: chain 1 Y32W W33P
- Kd (fluorescein): ≥ 10 µM
- yeast surface expression [1]: 0.825

Variant: chain 1 G100F
- Kd (fluorescein): ≥ 10 µM
- yeast surface expression [1]: 0.93

Variant: chain 1 G100V
- Kd (fluorescein): ≥ 10 µM
- yeast surface expression [1]: 0.97

Variant: chain 1 G100M
- Kd (fluorescein): ≥ 10 µM
- yeast surface expression [1]: 0.759

Variant: chain 1 D31C W36G
- Kd (fluorescein): ≥ 10 µM
- yeast surface expression [1]: 0.738

Variant: chain 1 Y102M D106T
- Kd (fluorescein): ≥ 10 µM
- yeast surface expression [1]: 1.07

Variant: chain 1 M34W N35C
- Kd (fluorescein): ≥ 10 µM
- yeast surface expression [1]: 0.721

Variant: chain 1 S101Y
- Kd (fluorescein): ≥ 10 µM
- yeast surface expression [1]: 0.659

Variant: chain 1 S30H N35D
- Kd (fluorescein): ≥ 10 µM
- yeast surface expression [1]: 0.828

Variant: chain 1 G104Q G109M
- Kd (fluorescein): ≥ 10 µM
- yeast surface expression [1]: 0.0981

Variant: chain 1 T28L D31L
- Kd (fluorescein): 0.0221 µM
- yeast surface expression [1]: 0.425

Variant: chain 1 S30C Y32V
- Kd (fluorescein): ≥ 10 µM
- yeast surface expression [1]: 0.7

Variant: chain 1 Y102A Y107P
- Kd (fluorescein): ≥ 10 µM
- yeast surface expression [1]: 0.707

Variant: chain 1 T28Y D31V
- Kd (fluorescein): ≥ 10 µM
- yeast surface expression [1]: 0.509

Variant: chain 1 T28D W36F
- Kd (fluorescein): 0.0154 µM
- yeast surface expression [1]: 0.895

Variant: chain 1 T28D W36Q
- Kd (fluorescein): ≥ 10 µM
- yeast surface expression [1]: 0.456
